From PMC9666628 (Nature Communications, 2022)
Positions count from the first letter of the chain named. Where “and” joins values, the source holds several entries; their conditions need not be identical. Equal values may be shown once. One block for each binder: values may come before it.

Columns and labels:
Conditions in all cases: both partners purified
Cbx7 chromodomain Q9D = target: T1, Cbx7 chromodomain Q9D (human, UniProt O95931 7-66, Q9D); test: fluorescence polarisation; 0.5 nM FITC-labeled peptide, chromodomain serially diluted (wild types 200-0.2 µM; Cbx7.V1 and Cbx.VDs 50 µM-50 nM); 25 °C, 30 min; 25 mM HEPES pH 7.5, 150 mM NaCl, 1 mM DTT, 0.01% TritonX-100; one-site total binding model; values of single replicates
T1 construct: chromodomain of human Cbx7; residues numbered on full-length Cbx7; also called Cbx7 Q9D; source: E. coli BL21(DE3), purified (Ni-NTA), tags removed with TEV protease
T1 sequence: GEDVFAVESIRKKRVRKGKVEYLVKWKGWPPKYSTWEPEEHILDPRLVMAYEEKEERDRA

[1] = target: T2, Cbx7.V1 chromodomain variant (tags removed, used for FP) (human, UniProt O95931 7-66, E8D (printed as the back-mutation D8E) | Q9D | V10I (printed as the …)); test: as above
T2 construct: chromodomain of human Cbx7 with the six substitutions of the phage-selected variant V1; residues numbered on full-length Cbx7; source: E. coli BL21(DE3), purified (Ni-NTA), tags removed with TEV protease
T2 sequence: T1 sequence with E2D, V4I, K27E, P31L, K32E

Cbx7 chromodomain K33E = target: T3, Cbx7 chromodomain K33E (human, UniProt O95931 7-66, K33E); test: as above
T3 construct: chromodomain of human Cbx7; residues numbered on full-length Cbx7; also called Cbx7 K33E; source: E. coli BL21(DE3), purified (Ni-NTA), tags removed with TEV protease
T3 sequence: T1 sequence with D3Q, K27E

[2] = target: T4, Cbx7 chromodomain with the double substitution Q9D/K33E (human, UniProt O95931 7-66, Q9D | K33E); test: as above
T4 construct: chromodomain of human Cbx7; residues numbered on full-length Cbx7; also called Cbx7.VD; source: E. coli BL21(DE3), purified (Ni-NTA), tags removed with TEV protease
T4 sequence: T1 sequence with K27E

[3] = target: T5, wild-type Cbx7 chromodomain (human, UniProt O95931 7-66); test: as above
T5 construct: chromodomain of human Cbx7; also called Cbx7.wt; source: E. coli BL21(DE3), purified (Ni-NTA), tags removed with TEV protease
T5 sequence: T1 sequence with D3Q

[4] = target: T6, wild-type Cbx1 chromodomain (human, UniProt P83916 20-73); test: as above
T6 construct: chromodomain of human Cbx1; also called Cbx1.wt; source: E. coli BL21(DE3), purified (Ni-NTA), tags removed with TEV protease

[5] = target: T4, Cbx7 chromodomain with the double …; test: as above; remark: listed apart in the source
[6] = target: T5, wild-type Cbx7 chromodomain; test: as above; remark: listed apart in the source
[7] = target: T7, wild-type Cbx5 chromodomain (human, UniProt P45973 18-75); test: as above
T7 construct: chromodomain of human Cbx5; also called Cbx5.wt; source: E. coli BL21(DE3), purified (Ni-NTA), tags removed with TEV protease

Cbx7.V1 back-mutant L37P = target: T8, Cbx7.V1 back-mutant L37P (human, UniProt O95931 7-66, E8D (printed as the back-mutation D8E) | Q9D | V10I (printed as the …)); test: BLI; biotinylated peptide on streptavidin biosensor tips, chromodomain in solution at 5 or 1 µM; 25 °C; 25 mM HEPES pH 7.0, 150 mM NaCl, 1 mg/ml BSA, 0.01% Tween-20; steady-state fit, Langmuir model; values of single replicates
T8 construct: chromodomain of human Cbx7, variant V1 with residue 37 put back to the wild type; residues numbered on full-length Cbx7; Tags probably still on the protein in BLI (removal is told for FP and ITC only); source: E. coli BL21(DE3), purified (Ni-NTA)
T8 sequence: T1 sequence with E2D, V4I, K27E, K32E

Cbx7.V1 back-mutant E33K = target: T9, Cbx7.V1 back-mutant E33K (human, UniProt O95931 7-66, E8D (printed as the back-mutation D8E) | Q9D | V10I (printed as the …)); test: as above
T9 construct: chromodomain of human Cbx7, variant V1 with residue 33 put back to the wild type; residues numbered on full-length Cbx7; Tags probably still on the protein in BLI (removal is told for FP and ITC only); source: E. coli BL21(DE3), purified (Ni-NTA)
T9 sequence: T1 sequence with E2D, V4I, P31L, K32E

Cbx7.V1 back-mutant I10V = target: T10, Cbx7.V1 back-mutant I10V (human, UniProt O95931 7-66, E8D (printed as the back-mutation D8E) | Q9D | K33E | P37L (printed as the …)); test: as above
T10 construct: chromodomain of human Cbx7, variant V1 with residue 10 put back to the wild type; residues numbered on full-length Cbx7; Tags probably still on the protein in BLI (removal is told for FP and ITC only); source: E. coli BL21(DE3), purified (Ni-NTA)
T10 sequence: T1 sequence with E2D, K27E, P31L, K32E

[8] = target: T11, Cbx7.V1 chromodomain variant (protein used for BLI) (human, UniProt O95931 7-66, E8D (printed as the back-mutation D8E) | Q9D | V10I (printed as the …)); test: as above
T11 construct: chromodomain of human Cbx7 with the six substitutions of the phage-selected variant V1; residues numbered on full-length Cbx7; for BLI they were probably still on the protein; source: E. coli BL21(DE3), purified (Ni-NTA)
T11 sequence: T1 sequence with E2D, V4I, K27E, P31L, K32E

Cbx7.V1 back-mutant D8E = target: T12, Cbx7.V1 back-mutant D8E (human, UniProt O95931 7-66, Q9D | V10I (printed as the back-mutation I10V) | K33E | P37L (printed as the …)); test: as above
T12 construct: chromodomain of human Cbx7, variant V1 with residue 8 put back to the wild type; residues numbered on full-length Cbx7; Tags probably still on the protein in BLI (removal is told for FP and ITC only); source: E. coli BL21(DE3), purified (Ni-NTA)
T12 sequence: T1 sequence with V4I, K27E, P31L, K32E

Cbx7.V1 back-mutant E38K = target: T13, Cbx7.V1 back-mutant E38K (human, UniProt O95931 7-66, E8D (printed as the back-mutation D8E) | Q9D | V10I (printed as the …)); test: as above
T13 construct: chromodomain of human Cbx7, variant V1 with residue 38 put back to the wild type; residues numbered on full-length Cbx7; Tags probably still on the protein in BLI (removal is told for FP and ITC only); source: E. coli BL21(DE3), purified (Ni-NTA)
T13 sequence: T1 sequence with E2D, V4I, K27E, P31L

[9] = target: T14, wild-type Cbx2 chromodomain (human, UniProt Q14781 9-62); test: fluorescence polarisation; 0.5 nM FITC-labeled peptide, chromodomain serially diluted (wild types 200-0.2 µM; Cbx7.V1 and Cbx.VDs 50 µM-50 nM); 25 °C, 30 min; 25 mM HEPES pH 7.5, 150 mM NaCl, 1 mM DTT, 0.01% TritonX-100; one-site total binding model; values of single replicates
T14 construct: chromodomain of human Cbx2; also called Cbx2.wt; source: E. coli BL21(DE3), purified (Ni-NTA), tags removed with TEV protease
T14 sequence: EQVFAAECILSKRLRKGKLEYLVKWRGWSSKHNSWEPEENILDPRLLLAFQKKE

T6 sequence (P83916 20-73, looked up): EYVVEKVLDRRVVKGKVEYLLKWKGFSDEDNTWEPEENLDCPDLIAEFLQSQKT
T7 sequence (P45973 18-75, looked up): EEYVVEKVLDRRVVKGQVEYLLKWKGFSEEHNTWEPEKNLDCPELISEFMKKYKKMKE

Kd (Cbx7 chromodomain Q9D): 11 µM and 9.7 µM and 9.4 µM
Kd [1]: 7.5 µM and 5.7 µM and 7.8 µM
Kd (Cbx7 chromodomain K33E): 24 µM and 18 µM and 19 µM
Kd [2]: 8.4 µM and 7.4 µM and 8.2 µM
Kd [3]: 41 µM and 27 µM and 23 µM
Kd [4]: 0.453 µM and 0.543 µM and 0.529 µM
Kd [5]: 8.6 µM and 7.5 µM
Kd [6]: 33.5 µM and 37 µM and 23 µM
Kd [7]: 5.6 µM and 5 µM and 4.8 µM
B1: H3K9me3 peptide, FITC-labeled (peptide)
chain: ARTKQTARKSTGGKAPR
modifications: trimethyl-lysine at K9; fluorescein isothiocyanate (FITC) at the N-terminus

Kd (Cbx7.V1 back-mutant L37P): 2.7 µM and 3.3 µM
Kd (Cbx7.V1 back-mutant E33K): 8.5 µM and 12 µM
Kd (Cbx7.V1 back-mutant I10V): 4 µM and 3 µM
Kd [8]: 4.9 µM and 4.2 µM
Kd (Cbx7.V1 back-mutant D8E): 5.3 µM and 4.7 µM
Kd (Cbx7.V1 back-mutant E38K): 1.9 µM and 2.1 µM
B2: H3K9me3 peptide, biotinylated (peptide)
chain: ARTKQTARKSTGGKAPR
modifications: trimethyl-lysine at K9; biotin followed by an aminohexanoic acid linker at the N-terminus

Kd (Cbx7 chromodomain Q9D): 115 µM and 101 µM and 84 µM
Kd [1]: 4.5 µM and 3.9 µM and 3.4 µM
Kd (Cbx7 chromodomain K33E): 17.5 µM and 21 µM and 19 µM
Kd [2]: 5.1 µM and 4.7 µM and 5.2 µM
Kd [3]: 115 µM and 79 µM and 143 µM
Kd [9]: 117 µM and 101 µM and 84 µM
Kd [5]: 4.8 µM and 5.2 µM
Kd [6]: 138 µM and 84 µM and 109 µM
B3: H3K27me3 peptide, FITC-labeled (peptide)
chain: KQLATKAARKSAPATGGVK
modifications: trimethyl-lysine at K27; fluorescein isothiocyanate (FITC) at the N-terminus
